Assay [1] deals with pyruvate kinase (PK) M2 (PKM2) (mouse) (mouse (endogenous in isolated glomeruli)) (UniProt P52480). Put plainly: cross-linking; lysates of mouse glomeruli or HRMCs (sodium phosphate buffer pH 7.3, 0.5% Triton X-100), 0.01% glutaraldehyde 5 min 37°C, stopped with 50 mM Tris-Cl pH 8.0; 10% SDS-PAGE, blot with anti-PKM2; samples from db/m, db/db, AAV-shARAP1 mice; NG/HG, ARAP1 shRNA, ARAP1 overexpression, AG1478 in cells.

In assay [2] the target is pyruvate kinase (PK) M2 (PKM2) (human (endogenous in HRMCs)) (UniProt P14618). The assay is described as above.

Several values for one entry are separate records, joined by “and”; a condition that tells them apart may be missing. Equal entries are not always repeated.

pyruvate kinase (PK) M2 (PKM2) (mouse), P52480 1-531 (enzyme; other documents disagree on this pair), sequence (P52480 whole entry): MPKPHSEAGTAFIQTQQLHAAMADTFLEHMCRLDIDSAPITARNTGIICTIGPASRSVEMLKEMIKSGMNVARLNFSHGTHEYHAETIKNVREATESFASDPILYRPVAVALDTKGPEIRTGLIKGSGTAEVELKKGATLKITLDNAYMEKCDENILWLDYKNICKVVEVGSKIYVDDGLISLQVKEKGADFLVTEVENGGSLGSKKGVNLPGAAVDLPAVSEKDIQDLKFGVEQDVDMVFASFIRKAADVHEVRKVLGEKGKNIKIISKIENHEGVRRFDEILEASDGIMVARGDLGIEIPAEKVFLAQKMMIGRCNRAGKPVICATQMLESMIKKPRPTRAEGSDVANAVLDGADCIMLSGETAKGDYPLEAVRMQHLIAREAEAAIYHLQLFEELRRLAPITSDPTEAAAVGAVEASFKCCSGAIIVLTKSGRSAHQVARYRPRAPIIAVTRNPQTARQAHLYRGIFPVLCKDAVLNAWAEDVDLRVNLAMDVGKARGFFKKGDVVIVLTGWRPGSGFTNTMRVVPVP
pyruvate kinase (PK) M2 (PKM2), P14618 1-531 (enzyme; other documents disagree on this pair), sequence (P14618 whole entry): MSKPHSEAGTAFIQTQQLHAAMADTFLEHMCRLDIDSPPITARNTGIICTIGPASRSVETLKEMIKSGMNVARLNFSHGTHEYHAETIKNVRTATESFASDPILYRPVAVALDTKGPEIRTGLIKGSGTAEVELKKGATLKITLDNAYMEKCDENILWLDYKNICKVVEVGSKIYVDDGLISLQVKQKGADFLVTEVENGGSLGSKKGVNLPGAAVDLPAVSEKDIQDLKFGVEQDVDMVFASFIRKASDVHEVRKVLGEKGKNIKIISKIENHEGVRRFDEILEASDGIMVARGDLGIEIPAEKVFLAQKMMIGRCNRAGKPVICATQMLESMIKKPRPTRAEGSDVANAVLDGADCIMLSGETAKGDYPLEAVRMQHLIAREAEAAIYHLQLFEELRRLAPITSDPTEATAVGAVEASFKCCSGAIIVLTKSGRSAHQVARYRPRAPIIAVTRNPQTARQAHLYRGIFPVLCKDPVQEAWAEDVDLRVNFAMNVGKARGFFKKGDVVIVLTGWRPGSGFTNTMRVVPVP

On to “pyruvate kinase (PK) M2 (PKM2) (mouse), P52480 1-531 (enzyme; other documents disagree on this pair)”, for which the stoichiometry N in assay [1] is 2 and 4. “pyruvate kinase (PK) M2 (PKM2), P14618 1-531 (enzyme; other documents disagree on this pair)” registered a stoichiometry N in assay [2] of 2.

Broadly, the stoichiometry N is the number of molecules, sites or subunits per partner or assembly.

The record behind these values is PMC9974832.
